Consider 9 molecules from patent US20240092877A1 (DXDISCOVERY, published 2024).

Where a chain is given by its changes, count along the chain named.

What all share (assay): indirect ELISA, plates coated with TcfA protein fragment
Test [1] addresses T1, TcfA peptide amino acids 288-304 conjugated to bovine serum albumin (Bordetella pertussis, conjugated to bovine serum albumin (BSA)).
T1 construct: Protein fragment coated on ELISA plates; BSA conjugate
T1 peptide: QLPERGDDAGPKPPEGE

For test [2], the target named is T2, TcfA peptide amino acids 140-160 conjugated to bovine serum albumin (Bordetella pertussis, conjugated to bovine serum albumin (BSA)).
T2 construct: Protein fragment coated on ELISA plates; BSA conjugate; also called aa140-160
T2 peptide: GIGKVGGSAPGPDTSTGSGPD

Test [3] addresses T3, TcfA peptide amino acids 305-323 conjugated to bovine serum albumin (Bordetella pertussis, conjugated to bovine serum albumin (BSA)).
T3 construct: Protein fragment coated on ELISA plates; BSA conjugate
T3 peptide: GGDEGPQPPQGGGEQDAPE

In test [4] the target is T4, TcfA protein fragment amino acids 40-374 (Bordetella pertussis).
T4 construct: Not conjugated to BSA
T4 chain: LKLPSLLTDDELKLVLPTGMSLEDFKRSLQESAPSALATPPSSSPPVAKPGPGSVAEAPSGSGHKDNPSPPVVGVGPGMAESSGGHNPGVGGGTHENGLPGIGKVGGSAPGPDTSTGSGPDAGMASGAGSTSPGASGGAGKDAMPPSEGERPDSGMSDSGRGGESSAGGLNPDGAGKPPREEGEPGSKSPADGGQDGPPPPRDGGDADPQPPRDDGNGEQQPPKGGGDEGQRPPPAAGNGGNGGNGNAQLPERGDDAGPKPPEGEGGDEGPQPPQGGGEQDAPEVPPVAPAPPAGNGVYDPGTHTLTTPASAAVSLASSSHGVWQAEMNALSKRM

B1: anti-TcfA monoclonal antibody 14D12 (antibody, V domains shown)
VH: EVMLVESGGALVKPGGSLKLSCAASGITFSNYAMSWIRQTPEKRLEWVASISSGGSYIYYSDSVKGRFTISRDNARNTLNLQMSSLRSEDTAMYYCVRGAHGNFDYWGQGTTLTVSS
VL: DIVLTQSPASLAVSLGQRATISCRTSETVDYDGDSYMNWYQQKSGQPPKLLISGASNVESGVPARFSGSGSGTDFSLNIHPVEEDDITMYFCQQNRKLPYTFGSGTKLEMK
Turning to B1, the binding result in test [1] was “binds”.

B2: anti-TcfA monoclonal antibody 10B1 (antibody, V domains shown)
VH: EVQLQQSGAELVKPGASVKLSCTASGFNIKDTYIHWVKQRPEQGLEWIGRIDPANGNTIYASKFQGKAPITAVTSSNTAYMQFSSLTSGDTAVYYCTAMDYWGQGTSVTVSS
VL: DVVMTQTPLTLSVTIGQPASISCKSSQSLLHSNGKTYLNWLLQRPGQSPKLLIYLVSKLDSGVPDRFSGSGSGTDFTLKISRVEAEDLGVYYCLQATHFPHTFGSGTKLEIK
Take B2: the binding result in test [2] is reported as “binds”.

B3: anti-TcfA monoclonal antibody 7E11 (antibody, V domains shown)
VH: B2 VH with T58I, K67E, P69T, V73D, F83L, T97S
VL: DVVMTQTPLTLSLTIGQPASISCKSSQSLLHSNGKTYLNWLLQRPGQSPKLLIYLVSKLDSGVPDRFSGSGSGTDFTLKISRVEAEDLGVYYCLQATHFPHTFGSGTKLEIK
For the molecule B3, the binding result in test [2] is on record as “binds”.

B4: anti-TcfA monoclonal antibody 13E11 (antibody, V domains shown)
VH: EVQLVESGGGLVKPGGSRKLSCAASGFTFSDYGMHWVRQAPEKGLEWVAYISSGSSTIYYADTVKGRFTISRDNAKNTLFLQMTSLRSEDTAMYYCARPRSGRYFDYWGQGTTLTVSS
VL: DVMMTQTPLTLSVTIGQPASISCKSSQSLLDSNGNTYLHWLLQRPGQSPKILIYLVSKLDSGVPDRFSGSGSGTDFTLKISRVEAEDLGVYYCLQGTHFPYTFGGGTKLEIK
As to B4, the binding result in test [3] and in test [1] was “binds” throughout.

B5: anti-TcfA monoclonal antibody 20F4 (antibody, V domains shown)
VH: QIQLVQSGPELKKPGETVKISCKASGYTFTNYGMNWVKQAPGKGLKWMGWINTYTGEPTYADDFKGRFAFSLETSATTAYLQINNLKNEDTATYFCARAATGYFDYWGQGTTLTVSS
VL: DIVMSQSPSSLAVSAGEKVTMSCKSSQSLLYSSNQKNYLAWYQQKPGQSPKLLIYWASTRESGVPDRFTGSGSGTDFTLTISSVKAEDLAVYYCQQYYNEYTFGGGTKLEIK
On to B5, for which the binding result in test [3] is on record as “binds”.

B6: anti-TcfA monoclonal antibody 18B2 (antibody, V domains shown)
VH: QVQLQQSGAELVRPGTSVKMSCKAAGYTFTNYWIGWVKQRPGHGLEWIGDIYPGGVYTNYNENFKGKATLTADTSSSTAHMQLSSLTSEDSAIYYCVRGGKYGNFFAMDYWGQGTSVTVSS
VL: DIVITQDELSNPVTSGESVSISCRSSKSLLYKDGKTYLNWFLQRPGQSPQLLIYLMSTRASGVSDRFSGSGSGTDFTLEISRVKAEDVGVYYCQQLVEYPFTFGSGTKLEIK
Take B6: the binding result in test [4] is listed as “binds”.

B7: anti-TcfA monoclonal antibody 23F8 (antibody, V domains shown)
VH: EVQLVESGGGLVKPGGSRKLSCAASGFTFSDYGMHWVRQAPEKGLEWVAYISSGSRTIYYADTVKGRFTISRDNAKNTLFLQMTSLRSEDTAMYYCARLGYGYDWYFDVWGTGTTVTVSS
VL: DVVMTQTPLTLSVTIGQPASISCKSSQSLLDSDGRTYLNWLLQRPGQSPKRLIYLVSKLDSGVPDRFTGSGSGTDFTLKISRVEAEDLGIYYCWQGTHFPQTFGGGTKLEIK
For B7, the binding result in test [1] was “binds”.

B8: anti-TcfA monoclonal antibody 3E6 (antibody, V domains shown)
VH: EVKLVESGGGLVQPGGSLRLSCATSGFTFTDYYMSWVRQPPGKALEWMGFIRNKAKGYTTDYSASVKGRFTISRDDSQSILYLQMNTLRPEDSATYYCARNYDYSMDYWGQGTSVTVSS
VL: DIQLTQSPASLSASVGETVTITCRASDNIHKYLAWYQQKQGKSPQRLVYNAKTLADGVPSRFNGSGSGTQYSLKINSLQPEDFGIYYCQHFWSTPLTFGAGTKLELK
In the case of B8, in test [2], the binding result was “binds”.

B9: anti-TcfA monoclonal antibody 14G11 (antibody, V domains shown)
VH: EVKLVESGGGLVQPGGSLSLSCAASGFTFTDYYMSWVRQPPGKALEWLGFIRNKANGYTTEYSASVKGRFTISRDNSQSILYLQMNALRAEDSATYYCARYRRDYYGSLNYYTMDYWGQGTSVTVSS
VL: DIQMTQSPASLSASVGETVTITCRASENIYSYLAWYQQKQGKSPQLLVYNAKTLAEGVPSRFSGSGSGTQFSLKINSLQPEDFGSYYCQNHYGIPLTFGAGTKLELK
Regarding B9, the binding result in test [3] was “binds”.
